Reference: the nanobody polyreactivity screen of Harvey et al. (2022)

Assay: yeast display, Sf9 membrane polyspecificity reagent, FACS + sequencing; frameworks hold sequencing errors
Summary of the method: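 Nanobodies from a synthetic yeast display library (Saccharomyces cerevisiae BJ5465), induced 36–48 hours with galactose, were stained 1 hour at 4 °C with 10% biotinylated, detergent-solubilized Sf9 membrane reagent, enriched on streptavidin microbeads, then FACS-sorted. Anti-HA (expression) and streptavidin (reagent binding) fluorescence set low and high (top ~1%) gates. Polyreactivity labels come from the gate of origin. Genes were colony-PCR amplified, MiSeq 2 × 250 sequenced and filtered by CDR length.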

| Sequence | polyreactivity (PSR sort gate) |
| --- | --- |
| QVQLVESGGGLVQAGGSLRLSCAASGRIFFYYAMGWYRQAPGKEREMVAAISWSGSSTYYADSVKGRFTISRDNAKNTVYLQMNSLKPEDTAVYYCAADYYIDYFYYDYWGQGTQVTVSS | high polyreactivity |
| QVQLVESGGGLVQAGGSLRLSCAASGRIFGAYAMGWSRQAPGKERELVAAITSRGGNTYYADSVKGRFTISRDNAKNTVYLQMNSVKPEDTAVYYCAARHDKRRQYYVGQSAFDYWGQGTQVTVSS | low polyreactivity |
| QVQLVESGGGLVQAGGSLRLSCAASGRIFGAYAMGWYIQAPGKERELVAAIDIRGGNTYYADSVKGRFTISRDNAKNTVYFQMNSQKPVDTAVYYCAADTWYDAYNYWGQGTQVTVSS | low polyreactivity |
| QVQLVESGGGLVQAGGSLRLSCAASGRIFGAYAMGWYRQAPGKERELVAAITSAGSTHYADSVKGRFTISRDNAKNTVYLQMNCLKPQDTAVYYCAADRYPWPLQYVEYDSDYWGQGTQVTVSS | low polyreactivity |
| QVQLVESGGGLVQAGGSLRLSCAASGRIFGAYAMGWYRQAPGKERELVAAITSRGGNTYYADSVKGRFTISRDTAKNTVYLQMNSLKPEDTAVYSCAARHDKRRQYYVGQSAFDYWGQGTQVTVSS | low polyreactivity |
| QVQLVESGGGLVQAGGSLRLSCAASGRIFGAYAMGWYRQAPGKERELVATITSDGSTDYADSVKGRFTISRDNAKNTVYLQMNSLKPEDTAVYYCAVAYLWRPYDFREFDYWGQGTQVTVSS | low polyreactivity |
| QVQLVESGGGLVQAGGSLRLSCAASGRIFGAYTMGWYRQEPGKERELVAAISDGGDTYYADSVKGRFTISRDNAKNTVYFQMNRVKPEDTAVYYCAADAPYYAYYWFPSSFGIYGYWGQGTQVTVSS | low polyreactivity |
| QVQLVESGGGLVQAGGSLRLSCAASGRIFGDNAMGWYRQAPGKERELVAGIRWRADRTYYADSVKWRFTISRDNAKNTVYLQMNSLKPEDTAVYYCNVGSFTGHSYGFGYWGQGTQVTVSS | low polyreactivity |
| QVQLVESGGGLVQAGGSLRLSCAASGRIFGDNTMGWYRQAPGKERELVAAISFTGGSTYYADSVKGRFTISRDNAKNTVYLQMNSLKPEDTAVYYCNADWVSTWGYDYWGQGTQVTVSS | low polyreactivity |
| QVQLVESGGGLVQAGGSLRLSCAASGRIFGDYAKGWYRQAPGKERELVAAIRFDTGSTYYADSVKGRFTISRDTAKNTVYLQMNSLKPEDTAVYYCAAQHRGVQVTFGEYDYWGQGTQVTVSS | low polyreactivity |
| QVQLVESGGGLVQAGGSLRLSCAASGRIFGDYAMGGSRQAPGKERELVAVISVGGRTSYADSVKGRFTISRDNAKNTVYLQMNSLKPEDTAVYYCATRLSTRDGGYWGQGTQVTVSS | low polyreactivity |
| QVQLVESGGGLVQAGGSLRLSCAASGRIFGDYAMGWYRQAPGKEMELVAAITSAGSTHYADSVKGRFTISRDNAKNTVYLQMNILKPDDTAVYYCAADGIARAYVLFDAYDFLYDYWGQGTHVTVSS | low polyreactivity |
| QVQLVESGGGLVQAGGSLRLSCAASGRIFGDYGMGWYRQAPGKERELVAAITDRGGTTYYADSVKGRFTISRDNAKNTVYLQMNSLKPEDTAVYYCNARQSDIFDYDYWGQGTQVTVSS | low polyreactivity |
| QVQLVESGGGLVQAGGSLRLSCAASGRIFGEKAMGWYRQAPGKERELVADITWSGTSTYYADSVKGRFTISRDNAKNTVYLQMNSLKPEDTAVYYCAASATLFSSRGKRYYWGQGTQVTVSS | low polyreactivity |
| QVQLVESGGGLVQAGGSLRLSCAASGRIFGENAMGWYRQAPGKEWEFVAVISISDASTYYADSVKGRFTISRDNAKNSVDFQMNSLKPEDTAVYYCAADLTDFLYVASDYWGQGTQVTVSS | low polyreactivity |
| QVQLVESGGGLVQAGGSLRLSCAASGRIFGFNARGWYRQAPGKERELVAGITDSSGRTNYADSVKGRFTISRDNAKNTVYLQMNSLKPEDTAVYYCARRRFGQYTERYYWGQGTQVTVSS | low polyreactivity |
| QVQLVESGGGLVQAGGSLRLSCAASGRIFGFYVMGWYRQAPGKERELVAAISSRGGSTYYADSVKGRFTISRDNAKNTVYLQMNSLKPEDTAVYYCAASVYREYYDNDDYWGQGTQVTVSS | high polyreactivity |
| QVQLVESGGGLVQAGGSLRLSCAASGRIFGGNAMGWYRQAPGKERELVAAISKRGGSTYYADSVKGRFTISRDNAKNTVYLQMNSLKPEDTAVYYCAAGFTAWTGVWYGYWGQGTQVTVSS | high polyreactivity |
| QVQLVESGGGLVQAGGSLRLSCAASGRIFGGYAMGWYRQAPGKERELVAAISSSGGRTYYADSVKGRFTISRDNAKNTVYLQMKSLKPEDTAVYYCNAGAGQRVSGHSFEYWGQGTQVTVSS | high polyreactivity |
| QVQLVESGGGLVQAGGSLRLSCAASGRIFGGYAMGWYRQAPGKERELVAAITSSGSTNYADSVKGRFTISRDNAKNTVYLQMNSLKPEDTAVYYCATDFKTVYYWWGMDYWGQGTQVTVSS | low polyreactivity |

| Sequence | polyreactivity (PSR sort gate) |
| --- | --- |
| QVQLVESGGGLVQAGGSLRLSCAASGRIFGGYEMGWYRQAPGKERELVAAITSDSSTTYADSVKGRFTISRDNAKNTVYLQMNSLKPEDTAVYYCAVQVNGPVFYRPYRDYDYWGQGTQVTVSS | low polyreactivity |
| QVQLVESGGGLVQAGGSLRLSCAASGRIFGGYGMGWYRPAPGKQRELVAAISSGGNTKYADSVKGRFTISRDNAKNTVYLQMNSLKPEDTAVYHCAAKFAQPDYRYDYWGQGTQVTVSS | high polyreactivity |
| QVQLVESGGGLVQAGGSLRLSCAASGRIFGGYTMGWYRQAPGKEREFVAAITSSGGSTYYADSVKGRFTISRDNAKNTVYLQMYSLKPEETAVYYCAVDDYYYDYDYWGQGTQVTVSS | low polyreactivity |
| QVQLVESGGGLVQAGGSLRLSCAASGRIFGGYVMGWYRQAPGKERELVAAINGGGGSTYYADSVKGRFTISRDNAKNTVYLQMNSLKPEDTAVYYCMLVKRSQRKSTIDFDYWGQGTQVTVSS | high polyreactivity |
| QVQLVESGGGLVQAGGSLRLSCAASGRIFGHNAMGWYRQAPGKERELVAAISYRGCSTYYADSVKGRCTISRDNAKNTVYLQMNSLKPVDTAVYYCAARWNRGRYDYWGQGTEVTVSS | high polyreactivity |
| QVQLVESGGGLVQAGGSLRLSCAASGRIFGHYAMGWYRHAPGKERELVAAINWRGGSTYYADSVKGRFTISRDNAKNTVYVQMKSLKPEETGVYYCAADWTKARDSIYDYWGQGSQVTVSS | low polyreactivity |
| QVQLVESGGGLVQAGGSLRLSCAASGRIFGHYAMGWYRQAPGKERELVAAISQSGTNTYYADSVKGRFTISRDNAKNTVYLQMNSLKPEDTAVYYCAAKPPRRYQLMDYWGQGTQVTVSS | high polyreactivity |
| QVQLVESGGGLVQAGGSLRLSCAASGRIFGINAMGWYRQAPGKERELVAAIDSAGRTYYADSVKGRFTISRDNAKNTVYLQMNSLKPEDTAVYSCNKDHSLYEHNYWGQGTQVTVSS | low polyreactivity |
| QVQLVESGGGLVQAGGSLRLSCAASGRIFGIYAMRWYRQAPGKERELVAAISYSGGSTYYADSVKGRFTISRDNAKNTVYLQMNSLNPEDTAVYYCNADYYASYYPYYSIRLDYLGQGTQVTVSS | low polyreactivity |
| QVQLVESGGGLVQAGGSLRLSCAASGRIFGKNDMGWYRQAPGKEREFVATIDWSGGSTYYADSVKGRFTISRDNAKNTVYLQMNSLKPEDTAVYYCAASGWNRYLFDYWGQGTQVTVSS | low polyreactivity |
| QVQLVESGGGLVQAGGSLRLSCAASGRIFGKYVMGWYRQAPGKERELVAAISRSGGSTSYADSVKGRFTISRDNAKNTVYLQMNSLKPEDTAVYYCAASPAGYLAPRGYYWGQGTQVTVSS | high polyreactivity |
| QVQLVESGGGLVQAGGSLRLSCAASGRIFGKYVMVWYRQEPGKERELVAGISWSAGSTYYADSVKGRFTISRDTAKNTVYLQMNSLKPEDSAVYSCAAGLEGGYDYWGQGTEVTVSS | low polyreactivity |
| QVQLVESGGGLVQAGGSLRLSCAASGRIFGLYAMGWYRQAPGKERELVAAINRTGNTNYADSVKGRFTISRDNAKNTVYLQMNSLKPEDTAVYYCAARFPYWRRYDYWGQGTQVTVSS | high polyreactivity |
| QVQLVESGGGLVQAGGSLRLSCAASGRIFGLYAMGWYRQAPGKERELVAAISRGGGSTYYADSVKGRFTISRDNAKNTVYLQMNSLKPEDTAVYYCATGLGYFSRLDYWGQGTLVTVSS | low polyreactivity |
| QVQLVESGGGLVQAGGSLRLSCAASGRIFGLYAMGWYRQAPGKERELVAAISRGGGSTYYADSVKGRFTISRDNAKNTVYLQMNSLKPEDTAVYYCATGLGYFSRLDYWGQGTQVTVSS | low polyreactivity |
| QVQLVESGGGLVQAGGSLRLSCAASGRIFGLYAMGWYRQAPGKERELVAAISWSGGRTYYADSVKGRFTISRDNAKNTVYLQMNSLKPEDTAVYYCAARSYYRSQYGFDFWGQGTQVTVSS | high polyreactivity |
| QVQLVESGGGLVQAGGSLRLSCAASGRIFGLYAMGWYRQAPGKERELVAAITSSTGSTYYADSVKGRFTISRDNAKNTVYLQMNSLKPEDTAVYYCAADLYSPSIYGYIYYTWLDYWGQGTQVTVSS | high polyreactivity |
| QVQLVESGGGLVQAGGSLRLSCAASGRIFGLYAMGWYRQAPGKERELVASISQSGANTYYADSVKGRFTISRDNAKNTVYLQMNCQKPEDTAVSYCAAKRYDRYYYWVGYWGQGTQVIVSS | low polyreactivity |
| QVQLVESGGGLVQAGGSLRLSCAASGRIFGLYVLGGYRQAPGKERELVAAIDDSGGDTYDADSVKGRFTISRDNAKNTVYIQMNSLKPEDTAVYYCPADYWGYYYGGYYYLRDYWGQGTQVTVSS | high polyreactivity |
| QVQLVESGGGLVQAGGSLRLSCAASGRIFGPNAMGWYRQAPGKERELVAAISWSGSSTRYADSVKGRFTISRDNAKNTVYLQMNSLKPEDTAVYYCAARRQSPDRYTKYEYWGQGTQVTVSS | low polyreactivity |
